How the values were obtained:
Experiment in all cases: cell-based or functional assay
[1] = molecular target: human glucagon receptor (human) (UniProt P47871)
[2] = molecular target: T1, human GIP receptor (human) (UniProt P48546)
T1 sequence (looked up): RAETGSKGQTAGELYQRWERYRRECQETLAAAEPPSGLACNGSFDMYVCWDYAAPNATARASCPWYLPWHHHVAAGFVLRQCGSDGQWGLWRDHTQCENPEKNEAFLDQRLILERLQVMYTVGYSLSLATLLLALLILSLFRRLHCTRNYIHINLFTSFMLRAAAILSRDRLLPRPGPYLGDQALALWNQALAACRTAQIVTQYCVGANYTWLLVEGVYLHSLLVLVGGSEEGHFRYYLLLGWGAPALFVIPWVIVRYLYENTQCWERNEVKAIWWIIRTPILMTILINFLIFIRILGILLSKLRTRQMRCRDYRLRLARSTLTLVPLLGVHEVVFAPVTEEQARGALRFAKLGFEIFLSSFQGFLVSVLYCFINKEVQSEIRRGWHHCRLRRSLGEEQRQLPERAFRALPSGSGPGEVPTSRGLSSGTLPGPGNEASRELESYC

hGLP-1R = hGLP-1R (Homo sapiens, UniProt P43220)
Chain of hGLP-1R (P43220 24-463): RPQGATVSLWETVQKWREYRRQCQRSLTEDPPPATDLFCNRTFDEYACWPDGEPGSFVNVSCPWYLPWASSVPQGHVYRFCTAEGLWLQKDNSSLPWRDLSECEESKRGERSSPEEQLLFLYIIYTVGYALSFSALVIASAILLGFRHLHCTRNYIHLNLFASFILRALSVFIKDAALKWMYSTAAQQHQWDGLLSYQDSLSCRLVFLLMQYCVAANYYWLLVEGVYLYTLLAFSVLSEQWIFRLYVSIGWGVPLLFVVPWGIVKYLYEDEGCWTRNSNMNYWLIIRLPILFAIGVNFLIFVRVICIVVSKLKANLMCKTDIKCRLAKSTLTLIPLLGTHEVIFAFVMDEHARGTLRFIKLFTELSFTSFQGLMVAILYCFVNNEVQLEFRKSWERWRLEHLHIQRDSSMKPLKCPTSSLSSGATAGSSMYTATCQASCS

Chain of human glucagon receptor (human) (P47871 26-477): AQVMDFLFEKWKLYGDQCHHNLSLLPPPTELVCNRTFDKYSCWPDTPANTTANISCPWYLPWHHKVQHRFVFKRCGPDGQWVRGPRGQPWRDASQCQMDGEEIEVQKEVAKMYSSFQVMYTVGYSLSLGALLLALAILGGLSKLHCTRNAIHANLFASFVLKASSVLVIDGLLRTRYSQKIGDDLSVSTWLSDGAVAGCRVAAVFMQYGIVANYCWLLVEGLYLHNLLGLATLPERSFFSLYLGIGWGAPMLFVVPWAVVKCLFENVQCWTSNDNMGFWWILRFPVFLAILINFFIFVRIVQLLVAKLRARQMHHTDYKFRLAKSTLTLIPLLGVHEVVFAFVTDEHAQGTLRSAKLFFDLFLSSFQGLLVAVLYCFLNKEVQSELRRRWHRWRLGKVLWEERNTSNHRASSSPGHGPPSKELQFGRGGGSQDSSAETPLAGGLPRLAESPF

B1: Example 103 (peptide)
chain: YXQGTFTSDFSXXLDKKAQXAFIEWLLAGGPSSGEPPPSGE
modifications: synthetic construct; SITE 2: note = 2-Aminoisobutyric Acid; SITE 12: note = L-ornithine; SITE 13: note = alpha-methyl-leucine; SITE 17: note = Lysine is chemically modified through conjugation of the epsilon-amino group of the Lysine side chain with (2-[2-(2-Amino-ethoxy)-ethoxy]-acetyl)-(gamma-Glu)
In the case of B1, the Relative cAMP EC50 [1] is reported as 10.5 nM, the cAMP Rel EC50, nM (in the presence of 1% HSA) [1] is reported as 2590 nM and the Relative cAMP EC50 [2] is reported as 0.2 nM. For the same binder, the cAMP Rel EC50, nM (in the presence of 1% HSA) [2] was 35.1 nM, the Relative cAMP EC50 (hGLP-1R) was 3.27 nM and the cAMP Rel EC50, nM (in the presence of 1% HSA) (hGLP-1R) was 482 nM.

B2: Example 1087 (peptide)
chain: YXQGTFTSDXSQXLDKKAQXAFIEYLIAGGPSSGAPPPSGE
modifications: Aib, 4Pal, αMeL, Me4Pal; acylated lysine; amide; synthetic construct; SITE 2: note = 2-Aminoisobutyric Acid; SITE 10: note = 3-(4-Pyridyl)-L-alanine; SITE 13: note = alpha-methyl-leucine; SITE 17: note = Lysine is chemically modified through conjugation of the epsilon-amino group of the Lysine side chain with (Glu)2-(gamma-Glu)-CO-(CH2)16-CO2H; SI
B2 showed a Relative cAMP EC50 [1] of 15.4 nM, a cAMP Rel EC50 (1% HSA) [1] of 2460 nM and a Relative cAMP EC50 [2] of 0.207 nM. For the same binder, the cAMP Rel EC50 (1% HSA) [2] was 23.3 nM, the Relative cAMP EC50 (hGLP-1R) was 2.63 nM and the cAMP Rel EC50 (1% HSA) (hGLP-1R) was 439 nM.

B3: Example 104 (peptide)
chain: YXQGTFTSDFSXXLDKKAQXAFIEWLLEGGXSSGAPPPSGE
modifications: synthetic construct; SITE 2: note = 2-Aminoisobutyric Acid; SITE 12: note = L-ornithine; SITE 13: note = alpha-methyl-leucine; SITE 17: note = Lysine is chemically modified through conjugation of the epsilon-amino group of the Lysine side chain with (2-[2-(2-Amino-ethoxy)-ethoxy]-acetyl)-(gamma-Glu)
B3 showed a Relative cAMP EC50 [1] of 7.58 nM, a cAMP Rel EC50, nM (in the presence of 1% HSA) [1] of 1260 nM and a Relative cAMP EC50 [2] of 0.251 nM. The cAMP Rel EC50, nM (in the presence of 1% HSA) [2] was 97.5 nM, the Relative cAMP EC50 (hGLP-1R) was 3.39 nM and the cAMP Rel EC50, nM (in the presence of 1% HSA) (hGLP-1R) was 698 nM.

B4: Example 1086 (peptide)
chain: YXQGTFTSDXSQXLDKKAQXAFIEYLIAGGPSSGAPPPSGE
modifications: Aib, 4Pal, αMeL, Me4Pal; acylated K; C-terminal amide; synthetic construct; SITE 2: note = 2-Aminoisobutyric Acid; SITE 10: note = 3-(4-Pyridyl)-L-alanine; SITE 13: note = alpha-methyl-leucine; SITE 17: note = Lysine is chemically modified through conjugation of the epsilon-amino group of the Lysine side chain with (Glu)-(gamma-Glu)-CO-(CH2)16-CO2H; SIT
B4 gave a Relative cAMP EC50 [1] of 12 nM, a cAMP Rel EC50 (1% HSA) [1] of 3140 nM and a Relative cAMP EC50 [2] of 0.117 nM. It also gave a cAMP Rel EC50 (1% HSA) [2] of 21.2 nM, a Relative cAMP EC50 (hGLP-1R) of 1.23 nM and a cAMP Rel EC50 (1% HSA) (hGLP-1R) of 496 nM.

B5: Example 1085 (peptide)
chain: YXQGTFTSDXSQXLDKKAQXAFIEYLIAGGPSSGAPPPSGE
modifications: non-natural residues; lipidated Lys; C-terminal amide; synthetic construct; SITE 2: note = 2-Aminoisobutyric Acid; SITE 10: note = 3-(4-Pyridyl)-L-alanine; SITE 13: note = alpha-methyl-leucine; SITE 17: note = Lysine is chemically modified through conjugation of the epsilon-amino group of the Lysine side chain with D-Glutamic acid-(gamma-Glu)-CO-(CH2)16
For B5, the Relative cAMP EC50 [1] was 11.6 nM, the cAMP Rel EC50 (1% HSA) [1] was 1370 nM and the Relative cAMP EC50 [2] was 0.0827 nM. For the same binder, the cAMP Rel EC50 (1% HSA) [2] was 9.84 nM, the Relative cAMP EC50 (hGLP-1R) was 1.28 nM and the cAMP Rel EC50 (1% HSA) (hGLP-1R) was 188 nM.

B6: Example 1072 (peptide)
chain: YXQGTFTSDXSQXLDXKAQXAFIQXLIEGGPSSGAPPPSGSEE
modifications: Aib, 4Pal, αMeL, Orn, Me4Pal, αMeY; acylated Lys; C-terminal amide; synthetic construct; SITE 2: note = 2-Aminoisobutyric Acid; SITE 10: note = 3-(4-Pyridyl)-L-alanine; SITE 13: note = alpha-methyl-leucine; SITE 16: note = L-ornithine; SITE 17: note = Lysine is chemically modified through conjugation of the epsilon-amino group of the Lysine side chain with D-Glutami
For B6, the Relative cAMP EC50 [1] was 10.5 nM, the cAMP Rel EC50 (1% HSA) [1] was 914 nM and the Relative cAMP EC50 [2] was 0.157 nM. The cAMP Rel EC50 (1% HSA) [2] was 9.94 nM, the Relative cAMP EC50 (hGLP-1R) was 0.889 nM and the cAMP Rel EC50 (1% HSA) (hGLP-1R) was 95.1 nM.

B7: Example 1094 (peptide)
chain: YXQGTFTSDXSQXLDXKAQXAFIEXLIAXGPSSGEPPPSGSEE
modifications: non-natural residues (Aib, 4Pal, Orn, Me4Pal, αMeY); lipidated K; amide; synthetic construct; SITE 2: note = 2-Aminoisobutyric Acid; SITE 10: note = 3-(4-Pyridyl)-L-alanine; SITE 13: note = alpha-methyl-leucine; SITE 16: note = L-ornithine; SITE 17: note = Lysine is chemically modified through conjugation of the epsilon-amino group of the Lysine side chain with (gamma-Gl)
With B7 the Relative cAMP EC50 [1] was 5.84 nM, the cAMP Rel EC50 (1% HSA) [1] was 831 nM and the Relative cAMP EC50 [2] was 0.0515 nM. For the same binder, the cAMP Rel EC50 (1% HSA) [2] was 5.86 nM, the Relative cAMP EC50 (hGLP-1R) was 0.623 nM and the cAMP Rel EC50 (1% HSA) (hGLP-1R) was 64.4 nM.

B8: Example 1092 (peptide)
chain: YXQGTFTSDXSQXLDXKAQXAFIEYLIAXGPSSGEPPPSGSEE
modifications: non-natural residues, acylated Lys ((γGlu)2-C18 diacid), C-terminal amide; synthetic construct; SITE 2: note = 2-Aminoisobutyric Acid; SITE 10: note = 3-(4-Pyridyl)-L-alanine; SITE 13: note = alpha-methyl-leucine; SITE 16: note = L-ornithine; SITE 17: note = Lysine is chemically modified through conjugation of the epsilon-amino group of the Lysine side chain with (gamma-Gl)
B8 gave a Relative cAMP EC50 [1] of 3.45 nM, a cAMP Rel EC50 (1% HSA) [1] of 506 nM and a Relative cAMP EC50 [2] of 0.0648 nM. The cAMP Rel EC50 (1% HSA) [2] was 7.83 nM, the Relative cAMP EC50 (hGLP-1R) was 1.33 nM and the cAMP Rel EC50 (1% HSA) (hGLP-1R) was 230 nM.

B9: Example 1098 (peptide)
chain: YXQGTFTSDXSQXLDXKAQXQFIEXLIEXGPSSGEPPPSGSEE
modifications: non-natural residues, acylated Lys (AEEA-γGlu-C18 diacid), C-terminal amide; synthetic construct; SITE 2: note = 2-Aminoisobutyric Acid; SITE 10: note = 3-(4-Pyridyl)-L-alanine; SITE 13: note = alpha-methyl-leucine; SITE 16: note = L-ornithine; SITE 17: note = Lysine is chemically modified through conjugation of the epsilon-amino group of the Lysine side chain with (2-[2-(2-
B9 showed a Relative cAMP EC50 [1] of 6.2 nM, a cAMP Rel EC50 (1% HSA) [1] of 994 nM and a Relative cAMP EC50 [2] of 0.201 nM. It also gave a cAMP Rel EC50 (1% HSA) [2] of 31.2 nM, a Relative cAMP EC50 (hGLP-1R) of 1.22 nM and a cAMP Rel EC50 (1% HSA) (hGLP-1R) of 184 nM.

B10: Example 1091 (peptide)
chain: YXQGTFTSDXSQXLDXKAQXAFIEYLIAXGPSSGAPPPSGSEE
modifications: non-natural residues; acylated Lys C18 diacid; C-term amide; synthetic construct; SITE 2: note = 2-Aminoisobutyric Acid; SITE 10: note = 3-(4-Pyridyl)-L-alanine; SITE 13: note = alpha-methyl-leucine; SITE 16: note = L-ornithine; SITE 17: note = Lysine is chemically modified through conjugation of the epsilon-amino group of the Lysine side chain with (gamma-Gl)
With B10 the Relative cAMP EC50 [1] was 4.67 nM, the cAMP Rel EC50 (1% HSA) [1] was 550 nM and the Relative cAMP EC50 [2] was 0.0592 nM. It also gave a cAMP Rel EC50 (1% HSA) [2] of 5.79 nM, a Relative cAMP EC50 (hGLP-1R) of 1.23 nM and a cAMP Rel EC50 (1% HSA) (hGLP-1R) of 145 nM.

B11: Example 1099 (peptide)
chain: YXQGTFTSDXSQXLDXKAQXAFIEXLIAXGPSSGEPPPSGSEE
modifications: non-natural residues, AEEA-γGlu-diacid acylated Lys, C-terminal amide; synthetic construct; SITE 2: note = 2-Aminoisobutyric Acid; SITE 10: note = 3-(4-Pyridyl)-L-alanine; SITE 13: note = alpha-methyl-leucine; SITE 16: note = L-ornithine; SITE 17: note = Lysine is chemically modified through conjugation of the epsilon-amino group of the Lysine side chain with (2-[2-(2-
B11 gave a Relative cAMP EC50 [1] of 3.47 nM, a cAMP Rel EC50 (1% HSA) [1] of 472 nM and a Relative cAMP EC50 [2] of 0.076 nM. For the same binder, the cAMP Rel EC50 (1% HSA) [2] was 8.64 nM, the Relative cAMP EC50 (hGLP-1R) was 0.73 nM and the cAMP Rel EC50 (1% HSA) (hGLP-1R) was 75.8 nM.

B12: Example 1095 (peptide)
chain: YXQGTFTSDXSQXLDXKAQXAFIEYLIAXGPSSGEPPPSGSEE
modifications: non-natural residues, C-terminal amide, acylated Lys with fatty diacid; synthetic construct; SITE 2: note = 2-Aminoisobutyric Acid; SITE 10: note = 3-(4-Pyridyl)-L-alanine; SITE 13: note = alpha-methyl-leucine; SITE 16: note = L-ornithine; SITE 17: note = Lysine is chemically modified through conjugation of the epsilon-amino group of the Lysine side chain with (2-[2-(2-
B12 gave a Relative cAMP EC50 [1] of 2.75 nM, a cAMP Rel EC50 (1% HSA) [1] of 337 nM and a Relative cAMP EC50 [2] of 0.065 nM. It also gave a cAMP Rel EC50 (1% HSA) [2] of 8.73 nM, a Relative cAMP EC50 (hGLP-1R) of 1.17 nM and a cAMP Rel EC50 (1% HSA) (hGLP-1R) of 159 nM.

B13: Example 1088 (peptide)
chain: YXQGTFTSDXSQXLDKKAQXAFIEYLIAGGPSSGAPPPSGEEE
modifications: Aib, 4Pal, αMeL, Me4Pal, acylated K, C-terminal amide; synthetic construct; SITE 2: note = 2-Aminoisobutyric Acid; SITE 10: note = 3-(4-Pyridyl)-L-alanine; SITE 13: note = alpha-methyl-leucine; SITE 17: note = Lysine is chemically modified through conjugation of the epsilon-amino group of the Lysine side chain with D-Glutamic acid-(gamma-Glu)-CO-(CH2)16
With B13 the Relative cAMP EC50 [1] was 14.8 nM, the cAMP Rel EC50 (1% HSA) [1] was 1710 nM and the Relative cAMP EC50 [2] was 0.182 nM. The cAMP Rel EC50 (1% HSA) [2] was 15.6 nM, the Relative cAMP EC50 (hGLP-1R) was 2.99 nM and the cAMP Rel EC50 (1% HSA) (hGLP-1R) was 367 nM.
